Reference: doi:10.1101/2024.10.29.620959v2

What was measured:
[1] = substrate: CCCCCCCCCCCCCCCC(=O)O; experiment: purified protein; conditions: pH 7.5
[2] = substrate: CCCCCCCCCCCC(=O)O; experiment: purified protein; conditions: pH 7.5

B1: FadD5 (Mycobacterium tuberculosis H37Rv) (protein)
chain: MTAQLASHLTRALTLAQQQPYLARRQNWVNQLERHAMMQPDAPALRFVGNTMTWADLRRRVAALAGALSGRGVGFGDRVMILMLNRTEFVESVLAANMIGAIAVPLNFRLTPTEIAVLVEDCVAHVMLTEAALAPVAIGVRNIQPLLSVIVVAGGSSQDSVFGYEDLLNEAGDVHEPVDIPNDSPALIMYTSGTTGRPKGAVLTHANLTGQAMTALYTSGANINSDVGFVGVPLFHIAGIGNMLTGLLLGLPTVIYPLGAFDPGQLLDVLEAEKVTGIFLVPAQWQAVCTEQQARPRDLRLRVLSWGAAPAPDALLRQMSATFPETQILAAFGQTEMSPVTCMLLGEDAIAKRGSVGRVIPTVAARVVDQNMNDVPVGEVGEIVYRAPTLMSCYWNNPEATAEAFAGGWFHSGDLVRMDSDGYVWVVDRKKDMIISGGENIYCAELENVLASHPDIAEVAVIGRADEKWGEVPIAVAAVTNDDLRIEDLGEFLTDRLARYKHPKALEIVDALPRNPAGKVLKTELRLRYGACVNVERRSASAGFTERRENRQKL
Q: Which Km [1] does the source give for B1 here?
A: 89.83 ± 9.71 µM

Q: And the Km [2]?
A: 102 ± 8.55 µM
